# Measured values as given in patent publication US20200199204A1 (UNITED STATES OF AMERICA AS REPRESENTED BY THE SECRETARY …, published 2020).
# B1: CAP256-VRC26.25 (antibody, V domains shown)
# VH: QVQLVESGGGVVQPGTSLRLSCAASQFRFDGYGMHWVRQAPGKGLEWVASISHDGIKKYHAEKVWGRFTISRDNSKNTLYLQMNSLRPEDTALYYCAKDLREDECEEWWSDYYDFGKQLPCAKSRGGLVGIADNWGQGTMVTVSS
# VL: QSVLTQPPSVSAAPGQKVTISCSGNTSNIGNNFVSWYQQRPGRAPQLLIYETDKRPSGIPDRFSASKSGTSGTLAITGLQTGDEADYYCATWAASLSSARVFGTGTQVIVLG
# Tests used:
# Test in all cases: cell-based or functional assay
# [1] = molecular target: HIV-1 Env of WITO.33 (HIV-1)
# [2] = molecular target: HIV-1 Env of ZM109.4 (HIV-1)
# [3] = molecular target: HIV-1 Env of CAAN.A2 (HIV-1)
# [4] = molecular target: HIV-1 Env of CAP210.E8 (HIV-1)
# [5] = molecular target: HIV-1 Env of RHPA.7 (HIV-1)
# [6] = molecular target: HIV-1 Env of MB539.2B7 (HIV-1)
# [7] = molecular target: HIV-1 Env of CM244.ec1 (HIV-1)
# [8] = molecular target: HIV-1 Env of UG037.8 (HIV-1)
# [9] = molecular target: HIV-1 Env of 6535.3 (HIV-1)
# [10] = molecular target: Env of SIVmac251.30 (SIV (SIVmac251))
# [11] = molecular target: HIV-1 Env of Q23.17 (HIV-1)
# [12] = molecular target: HIV-1 Env of SC422.8 (HIV-1)
# [13] = molecular target: HIV-1 Env of DU422.01 (HIV-1)
# [14] = molecular target: HIV-1 Env of CAP256.SU (HIV-1)
# [15] = molecular target: HIV-1 Env of PVO.04 (HIV-1)
# [16] = molecular target: HIV-1 Env of TRO.11 (HIV-1)
# [17] = molecular target: HIV-1 Env of 0260.v5.c36 (HIV-1)
# [18] = molecular target: HIV-1 Env of DU156.12 (HIV-1)
# [19] = molecular target: HIV-1 Env of Q769.d22 (HIV-1)
# [20] = molecular target: HIV-1 Env of BG505.w6m (HIV-1)
# [21] = molecular target: HIV-1 Env of C1080.c3 (HIV-1)
# [22] = molecular target: HIV-1 Env of TH976.17 (HIV-1)
# [23] = molecular target: HIV-1 Env of 96ZM651.02 (HIV-1)
# [24] = molecular target: HIV-1 Env of Q461.e2 (HIV-1)
# [25] = molecular target: HIV-1 Env of Q168.a2 (HIV-1)
# [26] = molecular target: HIV-1 Env of Q259.d2.17 (HIV-1)
# [27] = molecular target: HIV-1 Env of CAP244.D3 (HIV-1)
# [28] = molecular target: HIV-1 Env of REJO.67 (HIV-1)
# [29] = molecular target: HIV-1 Env of MB201 (HIV-1)
# [30] = molecular target: HIV-1 Env of 6405.v4.c34 (HIV-1)
# [31] = molecular target: HIV-1 Env of THRO.18 (HIV-1)
# [32] = molecular target: HIV-1 Env of RW020.2 (HIV-1)
# [33] = molecular target: HIV-1 Env of ZM135.10a (HIV-1)
# [34] = molecular target: HIV-1 Env of KER2008.12 (HIV-1)
# [35] = molecular target: HIV-1 Env of ZM197.7 (HIV-1)
# [36] = molecular target: HIV-1 Env of ZM214.15 (HIV-1)
# [37] = molecular target: HIV-1 Env of DU172.17 (HIV-1)
# [38] = molecular target: HIV-1 Env of QH0692.42 (HIV-1)
# [39] = molecular target: HIV-1 Env of Q842.d12 (HIV-1)
# [40] = molecular target: HIV-1 Env of TRJO.58 (HIV-1)
# [41] = molecular target: HIV-1 Env of CNE3 (HIV-1)
# [42] = molecular target: HIV-1 Env of CAP256.PI (HIV-1)
# [43] = molecular target: HIV-1 Env of ZM249.1 (HIV-1)
# [44] = molecular target: HIV-1 Env of AC10.29 (HIV-1)
binder,measurement,setting,value
B1,"IC50 (neutralization, TZM-bl)",[1],> 50 µg/mL
same,"IC50 (neutralization, TZM-bl)",[2],0.001 µg/mL
same,"IC50 (neutralization, TZM-bl)",[3],> 50 µg/mL
same,"IC50 (neutralization, TZM-bl)",[4],0.001 µg/mL
same,"IC50 (neutralization, TZM-bl)",[5],> 50 µg/mL
same,"IC50 (neutralization, TZM-bl)",[6],0.186 µg/mL
same,"IC50 (neutralization, TZM-bl)",[7],0.092 µg/mL
same,"IC50 (neutralization, TZM-bl)",[8],> 50 µg/mL
same,"IC50 (neutralization, TZM-bl)",[9],> 50 µg/mL
same,"IC50 (neutralization, TZM-bl)",[10],> 50 µg/mL
same,"IC50 (neutralization, TZM-bl)",[11],0.001 µg/mL
same,"IC50 (neutralization, TZM-bl)",[12],47.2 µg/mL
same,"IC50 (neutralization, TZM-bl)",[13],0.003 µg/mL
same,"IC50 (neutralization, TZM-bl)",[14],0.001 µg/mL
same,"IC50 (neutralization, TZM-bl)",[15],0.072 µg/mL
same,"IC50 (neutralization, TZM-bl)",[16],> 50 µg/mL
same,"IC50 (neutralization, TZM-bl)",[17],6.54 µg/mL
same,"IC50 (neutralization, TZM-bl)",[18],0.002 µg/mL
same,"IC50 (neutralization, TZM-bl)",[19],> 50 µg/mL
same,"IC50 (neutralization, TZM-bl)",[20],0.001 µg/mL
same,"IC50 (neutralization, TZM-bl)",[21],0.004 µg/mL
same,"IC50 (neutralization, TZM-bl)",[22],0.106 µg/mL
same,"IC50 (neutralization, TZM-bl)",[23],0.173 µg/mL
same,"IC50 (neutralization, TZM-bl)",[24],0.007 µg/mL
same,"IC50 (neutralization, TZM-bl)",[25],0.001 µg/mL
same,"IC50 (neutralization, TZM-bl)",[26],0.002 µg/mL
same,"IC50 (neutralization, TZM-bl)",[27],> 50 µg/mL
same,"IC50 (neutralization, TZM-bl)",[28],> 50 µg/mL
same,"IC50 (neutralization, TZM-bl)",[29],> 50 µg/mL
same,"IC50 (neutralization, TZM-bl)",[30],> 50 µg/mL
same,"IC50 (neutralization, TZM-bl)",[31],19.8 µg/mL
same,"IC50 (neutralization, TZM-bl)",[32],> 50 µg/mL
same,"IC50 (neutralization, TZM-bl)",[33],> 50 µg/mL
same,"IC50 (neutralization, TZM-bl)",[34],0.005 µg/mL
same,"IC50 (neutralization, TZM-bl)",[35],0.002 µg/mL
same,"IC50 (neutralization, TZM-bl)",[36],0.006 µg/mL
same,"IC50 (neutralization, TZM-bl)",[37],> 50 µg/mL
same,"IC50 (neutralization, TZM-bl)",[38],> 50 µg/mL
same,"IC50 (neutralization, TZM-bl)",[39],0.005 µg/mL
same,"IC50 (neutralization, TZM-bl)",[40],> 50 µg/mL
same,"IC50 (neutralization, TZM-bl)",[41],> 50 µg/mL
same,"IC50 (neutralization, TZM-bl)",[42],1.33 µg/mL
same,"IC50 (neutralization, TZM-bl)",[43],0.001 µg/mL
same,"IC50 (neutralization, TZM-bl)",[44],0.077 µg/mL
